Results: US20230322857A1, “RECOMBINANTLY ENGINEERED POLYPEPTIDES CAPABLE OF RECYCLING NONCANONICAL COFACTORS” (The Regents of the University of California, priority 2022, published 2023)

Assays:
E. coli SHuffle strain [1] = assay: GDH-Gor coupled growth rescue in SHuffle strain; assay type: cell-based, Escherichia coli; conditions: 0.5 mM diamide, NMN^+ 0, 2, 4 and 6 mM
Description: Culture conditions for GDH-Gor coupled growth rescue in SHuffle strain. The electro-competent cells of SHuffle harboring pLZ311 or pLZ312 were made as follows: The SHuffle cells were cultured in 200 mL SOB media with spectinomycin at 30° C. with shaking until OD600 reached 0.4-0.6. The culture was chilled on ice for 15 min and the cells were pelleted at 4° C., 4,000×g. Collected cells were washed with 10% glycerol in water (sterile, ice cold) and resuspended with 5 mL of 10% glycerol in water (sterile, ice cold), and stored as 50 μL aliquots at −80° C.
Glucose facilitator (encoded by glf) was used for uptake of unphosphorylated glucose into the cells. The co-transformation of Bs gdh and Zm glf was performed as follows: Thaw SHuffle/pLZ311 or SHuffle/pLZ312 electro-competent cells on ice, add 1 μL Bs gdh (pEK101 or pLZ210) and 1 μL Zm glf(pSM109) plasmid DNA to 50 μL competent cells, mix, and electroporate. Cells were recovered with 1 mL SOC at 37° C. with shaking for 1 h. The cells were added to 10 mL 2×YT with 10 g/L glucose, 0.5% arabinose, kanamycin, chloramphenicol, and ampicillin. After incubation at 37° C. with shaking for 10 h, 1 mL cells were washed 3 times and re-suspended in M9 buffer (1×BD Difco M9 Salts). Targeted dilutions after cells reached density of OD600 0.6 were prepared in M9 buffer and 5 μL aliquots were dispensed in series on an agar plate of M9 selection media containing 0.5 mM diamide, 1 g/L yeast extract, 10 g/L glucose, 0.5% arabinose, 0.5 mM IPTG, ampicillin, kanamycin, chloramphenicol and serial NMN concentrations of 0, 2, 4 and 6 mM. Selection plates were incubated at 37° C., and photos were taken to document growth progress.

E. coli SHuffle strain [2] = assay: Recapitulation of growth restoration with TS-PTDH variants in SHuffle strain; assay type: cell-based, Escherichia coli; conditions: spotted onto agar selection plates
Description: Selection of TS-PTDH Library. A total of 50 μL pre-made SHuffle/pLZ311 or SHuffle/pLZ312 electro-competent cells were transformed with 2 μL TS-PTDH A155N-E175-A176-L208 NNK library DNA (pLZ316) via electroporation as described above. After rescue in SOC media for 1 h, cultures were combined in 10 mL 2×YT with 10 g/L glucose, 0.5% arabinose, kanamycin and ampicillin. 0.2, or 1 μL of culture was immediately taken from the culture and plated on an 2×YT agar plates with kanamycin and ampicillin. The plate was incubated at 37° C. overnight, and the number of colonies formed was counted to estimate the library size. The liquid cultures were incubated at 37° C. with shaking for 10 h. Cells (1 mL) were washed 3 times and re-suspended in M9 Buffer. Targeted serial dilutions of cells were prepared in M9 buffer and 5 μL aliquots were dispensed in series on an agar plate of M9 selection media containing 0.5 mM diamide, 5 or 1 g/L yeast extract, 10 g/L glucose, 0.5% arabinose, 0.5 mM IPTG, 10 g/L sodium phosphite, kanamycin, ampicillin, and 5 mM NMN^+. Selection plates were incubated at 37° C., and photographs were taken to document growth progress. The independent transformants sampled was calculated as 2.4×10^6 and 2.5×10^6 colonies when plated on 5 and 1 g/L yeast extract, respectively. TS-PTDH and the template of the library, TS-PTDH A155N, were cultured in the same conditions as controls. The colonies were numbered by the order of appearance. The selected cells were re-streaked on fresh agar plate with identical media and incubated until single colonies formed on the plate. Variants that cannot forma single colony may be false positives. After extracting the plasmids from each re-streaked colony, the chosen TS-PTDH variants were amplified and moved into the pQElac vector containing a N-terminal 6×His tag for protein purification and characterization. […] 2 μL of a serial dilution of cells were deposited onto a growth selection plate and grown at 37° C.

[3] = Steady-state kinetics of TS-PTDH variants with NADP^+; assay type: biochemical; conditions: 100 mM MOPS, pH 7.25, 10 mM sodium phosphite, varied cofactor concentrations; n = 3
Description: (§1) Purification and Characterization of TS-PTDH Variants. The E. coli BL21(DE3) strains harboring pQElac plasmids encoding the TS-PTDH or TS-PTDH variants were grown in 2×YT media with kanamycin and ampicillin at 37° C. The IPTG-inducible expression, Ni-affinity purification, and protein concentration determination was conducted as described above.
(§2) The steady-state kinetic parameters toward the coenzymes were measured by spiking purified protein into a 100 μL reaction mixture containing 100 mM MOPS, pH 7.25, 10 mM sodium Pt, and varied cofactor concentrations from 0.02 mM to 5 mM at 25° C. The kinetic parameters were measured by monitoring the […] of reduced coenzyme at 340 nm. Data were fitted to the Michaelis-Menten equation to generate estimates of KM and kcat values.

[4] = Steady-state kinetics of TS-PTDH variants with NAD^+; assay type: biochemical; conditions: 100 mM MOPS, pH 7.25, 10 mM sodium phosphite, varied cofactor concentrations; n = 3
Description: as §1, §2

[5] = Steady-state kinetics of TS-PTDH variants with NMN^+; assay type: biochemical; conditions: for Km / NMN^+ kcat: 100 mM MOPS, pH 7.25, 10 mM sodium phosphite; for increased catalytic efficiency (kcat/Km) for NMN^+ compared to TS-PTDH A155N: vs parent enzyme TS-PTDH A155N
Description: as §1, §2

[6] = BNA(H)-mediated PTDH biotransformation with TsOYE; assay type: biochemical
Description: BNA(H)-Mediated PTDH Biotransformation. Reactions with BNA^+, see FIG. 10D, contained 100 mM MOPS-NaOH at pH 7.6, 10 mM KIP, 100 mM sodium phosphite, and 2% v/v DMSO. BNA^+Cl^−, prepared by refluxing equimolar amounts of nicotinamide and benzyl chloride in acetonitrile overnight, followed by precipitation with diethyl ether on ice was supplied to the reactions at final concentrations of 0, 5, 10, or 20 mM. Reactions were initiated by spiking TsOYE and the appropriate TS-PTDH variant to a final concentration of 10 μM, each. Reaction mixtures were incubated at 30° C. on a Thermomixer C (Eppendorf) with shaking at 900 rpm for 24 h, extracted with 500 μL ethyl acetate containing 5 mM n-dodecane, and analyzed by GC-FID. The cycling system with no BNA was used to determine the background activity of the cycling systems. This value was subtracted from the final levodione concentrations in the 5-, 10-, and 20-mM samples to determine the BNA(H)^− specific levodione production. Concentrations of levodione product were determined using a calibration line (0-10 mM, 6 levels, using n-dodecane as internal standard). The y-intercept of the calibration line was forced through 0.
For BNA(H)-mediated reactions, gas chromatography analyses were performed on a GC-2010 (Shimadzu, Japan) equipped with an AOC-20i auto injector and a flame ionization detector (FID), using a CP-Sil 5 column (25 m×0.25 mm×[…]). 1 μL of sample was injected with a split ratio of 100:1 and injector at 340° C. The FID was maintained at 360° C. Nitrogen was used as the carrier gas, with a linear velocity of 30 cm/s. The oven was held at 135° C. for 1 min, ramped at 15° C./min to 215° C., then 30° C./min to 345° C., and held at 345° C. for 1 min.
Expression and Purification of Proteins for BNA(H)-Mediated Biotransformation Reactions. E. coli BL21(DE3) strains were transformed with the plasmids containing the TS-PTDH variants and grown on LB-agar plates containing ampicillin at 37° C. overnight. An overnight culture, 15 mL LB supplemented with ampicillin, was inoculated with a single colony, and grown at 37° C., 170 rpm overnight. 2 L baffled shake-flasks with 250 mL of 2×YT media containing 200 μg/mL ampicillin, were inoculated with the overnight culture, grown at 37° C., 170 rpm until OD600 of ˜1.0, induced with IPTG (0.5 mM), and grown at 30° C. and 170 rpm for 24 h. Cells were harvested by centrifugation at 18,000×g, 4° C., 10 min and stored at −20° C. until purification.
The pellet was resuspended in four volumes loading buffer (50 mM sodium phosphate, 300 mM sodium chloride, 10 mM imidazole, pH 7.7), and lysed on ice by sonication (Branson sonifier 250; 15 min total, 40% duty cycle, output control 3.5, 2 mm tip). The lysate was clarified (21,000×g, 4° C., 30 min followed by 0.2 μm filtration), and loaded (1 mL/min) onto a Nickel-HisTrap FF crude (1 mL) column, washed with loading buffer (12 column volumes, CV), followed by a step with 10% elution buffer (loading buffer containing 250 mM imidazole; 12 CV). The protein was then eluted with 100% elution buffer and collected in fractions of 0.5 mL. Fractions containing protein were combined and dialyzed against ice-cold dialysis buffer (50 mM sodium phosphate, pH 7.7, 800 mL); the buffer was renewed after the first 2 h of dialysis. Following the dialysis, the protein was mixed with glycerol (20% v/v final concentration). Enzyme concentrations were estimated by the absorbance at 280 nm (non-denatured protein), using predicted extinction coefficients (wild type and LY-13: 26470, LY-7: […]; web.expasy.org/protparam/). The protein was aliquoted, flash frozen in liquid nitrogen, and stored at −80° C. until use. […]

[7] = varied cofactor concentrations, n = 3

| Molecule | cell growth of SHuffle strain harboring Gor Ortho with the NMN^+-reducing enzyme (E. coli SHuffle strain [1]) | growth restoration, co-expression with NMNH-specific Gor Ortho (E. coli SHuffle strain [2]) | Km [3] [µM] | NADP^+ kcat [3] [s⁻¹] | Km [4] [µM] | NAD^+ kcat [4] [s⁻¹] | Km ([5]; enzyme could not be saturated) [µM] | increase in catalytic efficiency for NMN^+ compared to TS-PTDH (wild type enzyme) ([5]; vs TS-PTDH) [fold] | Km [5, 7] [µM] | NMN^+ kcat [5, 7] [s⁻¹] | increased catalytic efficiency (kcat/Km) for NMN^+ compared to TS-PTDH A155N [5] [fold] | activity / cycling with BNA^+ compared to wild type [6] | response of biotransformation efficiency to BNA^+ concentration ([6]; 0, 5, 10, or 20 mM BNA^+) | utilization of the BNA^+ pool relative to the wild type protein ([6]; 20 mM BNA^+ supplementation, TsOYE, 24 h) |
| --- | --- | --- | --- | --- | --- | --- | --- | --- | --- | --- | --- | --- | --- | --- |
| wild type Bs GDH: wild type Bacillus subtilis glucose dehydrogenase, reduces NAD(P)^+ but not NMN^+ (protein, UniProt P12310 1-261, looked up) Glucose 1-dehydrogenase: MYPDLKGKVVAITGAASGLGKAMAIRFGKEQAKVVINYYSNKQDPNEVKEEVIKAGGEAVVVQGDVTKEEDVKNIVQTAIKEFGTLDIMINNAGLENPVPSHEMPLKDWDKVIGTNLTGAFLGSREAIKYFVENDIKGNVINMSSVHEVIPWPLFVHYAASKGGIKLMTETLALEYAPKGIRVNNIGPGAINTPINAEKFADPKQKADVESMIPMGYIGEPEEIAAVAAWLASKEASYVTGITLFADGGMTQYPSFQAGRG | did not support cell growth | – | – | – | – | – | – | – | – | – | – | – | – | – |
| TS-PTDH A155N: Pseudomonas stutzeri phosphite dehydrogenase with A155N substitution (SEQ ID NO:3) (protein) MLPKLVITHRVHEEILQLLAPHCELITNQTDSTLTREEILRRCRDAQAMMAFMPDRVDADFLQACPELRVIGCALKGFDNFDVDACTARGVWLTFVPDLLTVPTAELAIGLAVGLGRHLRAADAFVRSGKFRGWQPRFYGTGLDNATVGFLGMGNIGLAMADRLQGWGATLQYHEAKALDTQTEQRLGLRQVACSELFASSDFILLALPLNADTLHLVNAELLALVRPGALLVNPCRGSVVDEAAVLAALERGQLGGYAADVFEMEDWARADRPQQIDPALLAHPNTLFTPHIGSAVRAVRLEIERCAAQNILQALAGERPINAVNRLPKANPAAD | – | restored growth at a low level | 630 ± 70 | 0.88 ± 0.08 | 80 ± 10 | 1.46 ± 0.13 | > 5000 | ~30 | – | – | – | – | – | – |
| LY-6: phosphite dehydrogenase variant with A155N, E175Q, A176S (SEQ ID NO:4) (protein) MLPKLVITHRVHEEILQLLAPHCELITNQTDSTLTREEILRRCRDAQAMMAFMPDRVDADFLQACPELRVIGCALKGFDNFDVDACTARGVWLTFVPDLLTVPTAELAIGLAVGLGRHLRAADAFVRSGKFRGWQPRFYGTGLDNATVGFLGMGNIGLAMADRLQGWGATLQYHQSKALDTQTEQRLGLRQVACSELFASSDFILLALPLNADTLHLVNAELLALVRPGALLVNPCRGSVVDEAAVLAALERGQLGGYAADVFEMEDWARADRPQQIDPALLAHPNTLFTPHIGSAVRAVRLEIERCAAQNILQALAGERPINAVNRLPKANPAAD | – | – | 50 ± 10 | 0.95 ± 0.05 | 110 ± 10 | 1.04 ± 0.08 | – | – | 1100 ± 100 | 0.18 ± 0.01 | ~17 | – | – | – |
| LY-7: phosphite dehydrogenase variant with A155N, E175W, A176G, L208V (SEQ ID NO:5) (protein) MLPKLVITHRVHEEILQLLAPHCELITNQTDSTLTREEILRRCRDAQAMMAFMPDRVDADFLQACPELRVIGCALKGFDNFDVDACTARGVWLTFVPDLLTVPTAELAIGLAVGLGRHLRAADAFVRSGKFRGWQPRFYGTGLDNATVGFLGMGNIGLAMADRLQGWGATLQYHWGKALDTQTEQRLGLRQVACSELFASSDFILLAVPLNADTLHLVNAELLALVRPGALLVNPCRGSVVDEAAVLAALERGQLGGYAADVFEMEDWARADRPQQIDPALLAHPNTLFTPHIGSAVRAVRLEIERCAAQNILQALAGERPINAVNRLPKANPAAD | – | – | 110 ± 10 | 0.56 ± 0.03 | 750 ± 30 | 0.71 ± 0.04 | – | – | 1400 ± 100 | 0.16 ± 0.01 | ~11 | enhanced activity for BNA^+ reduction | cofactor dose-dependent response | improved utilization of the BNA^+ pool |
